We go through 7 substances from article PMC8053108, “RPA2 winged-helix domain facilitates UNG-mediated removal of uracil from ssDNA; implications for repair of mutagenic uracil at the replication fork” (Nucleic Acids Research, 2021).

Assay [1] deals with RPA2 (subunit of the RPA trimer) (UniProt P15927). The assay can be described thus: MST with dye-labelled RPA trimer.
Assay [2] shares this target. The assay can be described thus: peptide-bead pull-down, anti-RPA2 blot.
Assay [3] has as its target RPA2 WH (Homo sapiens) (UniProt P15927). The assay can be described thus: NMR. Particulars: cited from earlier work.
Assay [4] has the same target. The assay can be described thus: ITC. The following applies: cited from earlier work.
Assay [5] addresses human replication protein A (RPA) heterotrimer, recombinant (human) (UniProt P27694).
Assay [6] deals with RPA trimer lacking the RPA2 winged-helix domain (RPA-ΔWH) (human) (UniProt P27694).
RPA trimer lacking the RPA2 winged-helix domain (RPA-ΔWH) (human), sequence (P27694 whole entry, stated change not applied, chain 1 of 3, the tested form may be a part): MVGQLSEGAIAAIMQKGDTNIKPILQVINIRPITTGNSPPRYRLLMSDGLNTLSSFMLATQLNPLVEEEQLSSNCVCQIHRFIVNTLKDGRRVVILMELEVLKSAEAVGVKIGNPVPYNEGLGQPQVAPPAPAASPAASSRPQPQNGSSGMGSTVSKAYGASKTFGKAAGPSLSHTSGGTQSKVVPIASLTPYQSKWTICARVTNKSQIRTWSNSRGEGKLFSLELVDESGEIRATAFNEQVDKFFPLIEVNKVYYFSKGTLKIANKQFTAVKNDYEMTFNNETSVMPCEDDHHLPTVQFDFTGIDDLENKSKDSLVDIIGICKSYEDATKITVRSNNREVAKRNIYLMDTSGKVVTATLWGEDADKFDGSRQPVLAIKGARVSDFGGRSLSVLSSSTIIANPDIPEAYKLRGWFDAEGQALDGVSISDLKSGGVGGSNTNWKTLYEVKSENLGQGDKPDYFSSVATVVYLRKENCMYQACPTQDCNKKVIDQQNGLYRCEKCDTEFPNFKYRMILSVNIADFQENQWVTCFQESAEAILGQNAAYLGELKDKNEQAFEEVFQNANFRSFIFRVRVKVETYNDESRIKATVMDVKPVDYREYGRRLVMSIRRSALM
RPA trimer lacking the RPA2 winged-helix domain (RPA-ΔWH) (human), sequence (chain, as listed by the source mutant, chain 2 of 3): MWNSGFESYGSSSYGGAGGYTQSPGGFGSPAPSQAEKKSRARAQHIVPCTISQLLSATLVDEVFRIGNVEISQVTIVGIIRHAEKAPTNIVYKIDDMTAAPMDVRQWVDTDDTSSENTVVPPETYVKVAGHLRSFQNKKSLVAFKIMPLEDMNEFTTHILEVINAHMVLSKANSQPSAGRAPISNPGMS
RPA trimer lacking the RPA2 winged-helix domain (RPA-ΔWH) (human), sequence (chain, as listed by the source mutant, chain 3 of 3): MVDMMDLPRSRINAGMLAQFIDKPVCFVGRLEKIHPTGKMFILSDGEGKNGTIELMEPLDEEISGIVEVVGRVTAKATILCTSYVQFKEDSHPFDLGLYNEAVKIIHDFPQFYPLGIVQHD
Assay [7] addresses human replication protein A (RPA) heterotrimer, recombinant (human) (UniProt P27694). The source holds these as a separate data set.

UNG catalytic domain (UNG-CD), starting at UNG2 aa 93, sequence (P13051 93-313): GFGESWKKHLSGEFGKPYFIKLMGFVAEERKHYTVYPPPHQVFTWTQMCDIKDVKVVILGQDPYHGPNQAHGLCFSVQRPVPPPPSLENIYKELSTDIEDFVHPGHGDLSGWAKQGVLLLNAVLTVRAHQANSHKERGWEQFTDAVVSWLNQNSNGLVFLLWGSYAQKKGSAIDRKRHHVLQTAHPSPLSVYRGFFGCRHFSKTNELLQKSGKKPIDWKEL
human replication protein A (RPA) heterotrimer, recombinant (human), sequence (P27694 whole entry, chain 1 of 3, the tested form may be a part): as the sequence (P27694 whole entry, stated change not applied, chain 1 of 3, the tested form may be a part) above
human replication protein A (RPA) heterotrimer, recombinant (human), sequence (P15927 whole entry, chain 2 of 3, further chain, the tested form may be a part): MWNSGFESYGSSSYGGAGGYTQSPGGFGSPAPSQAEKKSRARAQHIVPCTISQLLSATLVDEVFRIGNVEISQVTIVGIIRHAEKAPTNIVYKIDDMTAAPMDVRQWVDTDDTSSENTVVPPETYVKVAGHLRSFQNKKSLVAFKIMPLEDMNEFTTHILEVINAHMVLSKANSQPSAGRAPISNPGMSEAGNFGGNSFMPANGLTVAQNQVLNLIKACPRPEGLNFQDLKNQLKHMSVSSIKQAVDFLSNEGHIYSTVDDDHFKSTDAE
human replication protein A (RPA) heterotrimer, recombinant (human), sequence (P35244 whole entry, chain 3 of 3, further chain, the tested form may be a part): as the sequence (chain, as listed by the source mutant, chain 3 of 3) above
RPA2 WH (Homo sapiens), sequence (P15927 172-270): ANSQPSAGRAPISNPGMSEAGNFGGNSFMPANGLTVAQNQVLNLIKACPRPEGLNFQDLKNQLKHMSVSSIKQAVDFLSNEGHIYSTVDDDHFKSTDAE
UNG2 peptide (16 aa), sequence (P13051 whole entry): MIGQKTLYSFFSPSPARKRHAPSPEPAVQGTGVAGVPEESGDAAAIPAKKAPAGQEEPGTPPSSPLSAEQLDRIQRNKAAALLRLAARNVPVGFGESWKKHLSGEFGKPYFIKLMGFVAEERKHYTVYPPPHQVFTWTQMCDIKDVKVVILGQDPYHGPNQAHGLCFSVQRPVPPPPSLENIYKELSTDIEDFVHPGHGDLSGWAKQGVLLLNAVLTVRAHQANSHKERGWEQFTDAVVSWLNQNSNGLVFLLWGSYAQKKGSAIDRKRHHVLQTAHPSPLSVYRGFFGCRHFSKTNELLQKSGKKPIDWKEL
UNG2 peptide (24 aa), sequence (P13051 whole entry): as above

Turning to “UNG2 57-90 (from UniProt P13051) pEV-34 (pT60) peptide”, the “binding against the reference” value in assay [1] (reference: EV-34 unphosphorylated peptide, sites T60) was “weaker”.

Take “UNG2 57-90 (from UniProt P13051) pEV-34 (pT60) peptide beads”: the “binding against the reference” value in assay [2] (reference: EV-34 unphosphorylated peptide beads, sites T60) is “weaker”. Take “UNG2 57-90 (from UniProt P13051) ppEV-34 (pT60, pS64) peptide”: the “binding against the reference” value is recorded as “weaker” in assay [1] (reference: EV-34 unphosphorylated peptide, sites T60,S64) and “weaker” in assay [1] (reference: pEV-34 (pT60) peptide, sites S64). As for “UNG2 57-90 (from UniProt P13051) ppEV-34 (pT60, pS64) peptide beads”, the “binding against the reference” value in assay [2] (reference: EV-34 unphosphorylated peptide beads, sites T60,S64) is “weaker”; in assay [2] (reference: pEV-34 (pT60) peptide beads, sites S64), “weaker”. Take “UNG2 peptide (16 aa) (from UniProt P13051)”: in assay [3], the Kd – broadly, a measure of binding affinity in units of concentration – was less than 1 µM. Turning to “UNG2 peptide (24 aa) (from UniProt P13051)”, the Kd in assay [4] is 6.6 µM.

For “UNG catalytic domain (UNG-CD), starting at UNG2 aa 93 (from UniProt P13051-1 93-313) (domain or fragment)”, the fold decrease in uracil excision from RPA (1 µM)-coated against naked ssDNA (100 nM U10-25*) in assay [5] was determined as 1000 fold. Also, the fold increase of enzyme concentration needed to convert similar amounts of dsDNA substrate with 500 nM RPA-ΔWH in assay [6] was found to be 50 fold. Besides, the fold increase of enzyme concentration needed to convert similar amounts of dsDNA substrate with 500 nM RPA-WT in assay [7] amounted to 200 fold.
